We go through eleven molecules from article PMC3035606, “Structural Basis of Response Regulator Dephosphorylation by Rap Phosphatases” (PLoS Biology, 2011).

Changes are numbered by the printed parent chain. Names and notes keep the numbering of the source. Read-outs that look alike come from different tables or passages of the source.

To fix the notation:
T1: Spo0F~P (radiolabeled phosphorylated Spo0F-His) (B. subtilis) (UniProt P06628)
T1 sequence (chain, phosphoaspartate-54 (32P)): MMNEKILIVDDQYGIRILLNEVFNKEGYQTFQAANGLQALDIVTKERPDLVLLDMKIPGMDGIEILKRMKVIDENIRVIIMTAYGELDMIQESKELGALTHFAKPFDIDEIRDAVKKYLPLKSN

T2: RapJ (B. subtilis), O34327
T2 chain: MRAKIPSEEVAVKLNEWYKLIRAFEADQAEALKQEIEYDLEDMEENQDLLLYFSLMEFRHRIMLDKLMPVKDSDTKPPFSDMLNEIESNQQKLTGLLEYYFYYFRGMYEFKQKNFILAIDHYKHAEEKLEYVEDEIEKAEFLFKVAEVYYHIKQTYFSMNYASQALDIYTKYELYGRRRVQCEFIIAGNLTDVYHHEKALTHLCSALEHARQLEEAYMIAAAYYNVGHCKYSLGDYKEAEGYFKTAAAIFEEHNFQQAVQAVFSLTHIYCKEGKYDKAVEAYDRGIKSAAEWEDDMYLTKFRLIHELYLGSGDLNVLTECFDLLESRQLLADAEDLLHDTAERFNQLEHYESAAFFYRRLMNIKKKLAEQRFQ

B1: RapH-E137A (enzyme)
chain: GSMSQAIPSSRVGVKINEWYKMIRQFSVPDAEILKAEVEQDIQQMEEDQDLLIYYSLMCFRHQLMLDYLEPGKTYGNRPTVTELLETIETPQKKLTGLLKYYSLFFRGMYEFDQKEYVEAIGYYREAEKELPFVSDDIAKAEFHFKVAEAYYHMKQTHVSMYHILQALDIYQNHPLYSIRTIQSLFVIAGNYDDFKHYDKALPHLEAALELAMDIQNDRFIAISLLNIANSYDRSGDDQMAVEHFQKAAKVSREKVPDLLPKVLFGLSWTLCKAGQTQKAFQFIEEGLDHITARSHKFYKELFLFLQAVYKETVDERKIHDLLSYFEKKNLHAYIEACARSAAAVFESSCHFEQAAAFYRKVLKAQEDILKGECLYAY
B2: RapH-Y175A (enzyme)
chain: B1 chain with A139E, Y177A
B3: RapH (enzyme, B. subtilis)
chain: B1 chain with A139E
notes: two heterologous N-terminal residues (Gly-Ser) derived from the thrombin cleavage signal; RapH, B. subtilis strain 168, residues 1-376 (MW theor 44.1 kDa); Dimer in the crystal and in solution; also called RapHA; RapHB; source: E. coli BL21, purified (glutathione resin, thrombin, Source 15Q, Superdex 200; dialysis instead of gel filtration for the phosphatase and phosphotransfer assays); not …
B4: RapH-F58A (enzyme)
chain: B1 chain with F60A, A139E
B5: RapH-D134A (enzyme)
chain: B1 chain with D136A, A139E
B6: RapH-L50A (enzyme)
chain: B1 chain with L52A, A139E
B7: Spo0F (natural protein, B. subtilis)
chain: GSMMNEKILIVDDQYGIRILLNEVFNKEGYQTFQAANGLQALDIVTKERPDLVLLDMKIPGMDGIEILKRMKVIDENIRVIIMTAYGELDMIQESKELGALTHFAKPFDIDEIRDAVKKYLPLKSN
notes: two heterologous N-terminal residues (Gly-Ser) derived from the thrombin cleavage signal; Spo0F, B. subtilis strain 168, residues 1-124; The methods name the vector pETDuet-1 but purify over glutathione resin and remove a GST tag; also called Spo0FA; Spo0FB; source: E. coli BL21(DE3), purified (glutathione resin, thrombin, Source 15Q and HiTrap Heparin flow-through, Superdex 200); …
B8: selenomethionyl Spo0F-D54E (natural protein, B. subtilis)
chain: B7 chain with D56E
modifications: selenomethionyl (selenomethionine derivatized)
notes: two heterologous N-terminal residues (Gly-Ser) derived from the thrombin cleavage signal; purified in an identical manner to Spo0F; Spo0F, B. subtilis strain 168, residues 1-124, with D54E; Used for SAD phasing; PDB 3Q15 holds the parent (wild-type Spo0F); source: E. coli BL21(DE3), purified as Spo0F (buffer D with 120 mM MgCl2); not shown: GST, N-terminal, cleaved
B9: RapF-H50L (enzyme)
chain: MTGVISSSSIGEKINEWYMYIRRFSIPDAEYLRREIKQELDQMEEDQDLLLYYSLMEFRHNLMLEYLEPLEKMRIEEQPRLSDLLLEIDKKQARLTGLLEYYFNFFRGMYELDQREYLSAIKFFKKAESKLIFVKDRIEKAEFFFKMSESYYYMKQTYFSMDYARQAYEIYKEHEAYNIRLLQCHSLFATNFLDLKQYEDAISHFQKAYSMAEAEKQPQLMGRTLYNIGLCKNSQSQYEDAIPYFKRAIAVFEESNILPSLPQAYFLITQIHYKLGKIDKAHEYHSKGMAYSQKAGDVIYLSEFEFLKSLYLSGPDEEAIQGFFDFLESKMLYADLEDFAIDVAKYYHERKNFQKASAYFLKVEQVRQLIQGGVSLYEIEV
B10: RapF (natural protein)
chain: B9 chain with L50H
B11: RapJ, O34327 1-373 (enzyme)
chain: T2 chain

Data set [1] concerns the target T1, Spo0F~P (radiolabeled phosphorylated Spo0F-His) (B. subtilis).
Data set [2] concerns the molecule itself. The data set can be described thus: crystal structure; vapor diffusion at 20°C; 7.5 mg/ml RapH and 3.5 mg/ml Spo0F in 20 mM Tris-HCl (pH 8.0), 100 mM KCl, 2.5 mM DTT, 5 mM MgCl2; well 20% PEG 3350, 200 mM lithium sulphate, 100 mM Bis-Tris (pH 6.0); refined to 2.20 Å.
Data set [3] addresses T1, Spo0F~P (radiolabeled phosphorylated Spo0F-His) (B. subtilis). The source holds these as a separate data set.
For data set [4], the target named is B3. Put plainly: crystal structure; vapor diffusion at 20°C; 7.5 mg/ml RapH and 3.5 mg/ml Spo0F in 20 mM Tris-HCl (pH 8.0), 100 mM KCl, 2.5 mM DTT, 5 mM MgCl2; well 20% PEG 3350, 200 mM lithium sulphate, 100 mM Bis-Tris (pH 6.0); refined to 2.20 Å. The following applies: both partners purified.
Data set [5] concerns the target B3. Put plainly: crystal structure; crystals of native RapH with selenomethionyl Spo0F(D54E), as the native crystals but Bis-Tris at pH 5.8; SAD phasing, initial model at 2.70 Å; isomorphous to the native crystals. Particulars: both partners purified.
The target in data set [6] is T1, Spo0F~P (radiolabeled phosphorylated Spo0F-His) (B. subtilis). This is another data set of the same source.
In data set [7] the target is T2, RapJ (B. subtilis), O34327. The data set can be described thus: SEC; size exclusion chromatography with gel filtration standards; experimental against theoretical molecular weight. Particulars: remark: other sources report otherwise. (In general: Size exclusion chromatography separates by hydrodynamic size, large species first.)

In turn, B1 registered a Spo0F~P remaining after 40 min, in vitro phosphatase assay (wild-type control 7%) (% of Spo0F~P remaining) in data set [1] of 15.
B2: the Spo0F~P remaining after 30 min, in vitro phosphatase assay (wild-type control 3%) (% of Spo0F~P remaining) in data set [1] worked out at 54.
The term stoichiometry N denotes a count of units in the complex or per binding partner. Take B3: the “stoichiometry N” value in data set [2] was 2.
With B4, the Spo0F~P remaining after 30 min, in vitro phosphatase assay (wild-type control 3%) (% of Spo0F~P remaining) in data set [3] came to 28.
Molecule B5 gave a Spo0F~P remaining after 30 min, in vitro phosphatase assay (wild-type control 3%) (% of Spo0F~P remaining) in data set [1] of 13.
As for B6, the Spo0F~P remaining after 30 min, in vitro phosphatase assay (wild-type control 13%) (% of Spo0F~P remaining) in data set [3] was found to be 26.
B7: in the data set with RapH [4], the binding result was “binds”.
B8: the binding result in the data set with RapH [5] is recorded as “binds”.
B9 showed a Spo0F~P remaining after 30 min, in vitro phosphatase assay (26 uM RapF); RapF-H50L dephosphorylates Spo0F (% of Spo0F~P remaining) in data set [6] of 16.
On to B10, for which the Spo0F~P remaining after 30 min, in vitro phosphatase assay (26 uM RapF); wild-type RapF does not dephosphorylate Spo0F (% of Spo0F~P remaining) in data set [6] was 54.
Consider B11, for which the stoichiometry N in data set [7] came out at 2.
